Results published in patent publication US20160320391A1 (Genentech, published 2016).

Assays:
[1] = target: T1, purified recombinant soluble hamster (Cricetulus griseus) phospholipase B-like 2 (PLBL2), his-tagged (hamster (Cricetulus griseus)); assay: sandwich ELISA, 19C10 coated as capture antibody, PLBL2 standard titrated, detection with biotinylated 15G11 and streptavidin-HRP, OD 450 nm; the value describes the whole sandwich
T1 construct: Transiently expressed in CHO-K1 cells and purified from the supernatant; In the rabbit serum assay the protein was biotinylated; also called PLB2; PLBD2; not shown: histidine (his) tag added
T1 chain: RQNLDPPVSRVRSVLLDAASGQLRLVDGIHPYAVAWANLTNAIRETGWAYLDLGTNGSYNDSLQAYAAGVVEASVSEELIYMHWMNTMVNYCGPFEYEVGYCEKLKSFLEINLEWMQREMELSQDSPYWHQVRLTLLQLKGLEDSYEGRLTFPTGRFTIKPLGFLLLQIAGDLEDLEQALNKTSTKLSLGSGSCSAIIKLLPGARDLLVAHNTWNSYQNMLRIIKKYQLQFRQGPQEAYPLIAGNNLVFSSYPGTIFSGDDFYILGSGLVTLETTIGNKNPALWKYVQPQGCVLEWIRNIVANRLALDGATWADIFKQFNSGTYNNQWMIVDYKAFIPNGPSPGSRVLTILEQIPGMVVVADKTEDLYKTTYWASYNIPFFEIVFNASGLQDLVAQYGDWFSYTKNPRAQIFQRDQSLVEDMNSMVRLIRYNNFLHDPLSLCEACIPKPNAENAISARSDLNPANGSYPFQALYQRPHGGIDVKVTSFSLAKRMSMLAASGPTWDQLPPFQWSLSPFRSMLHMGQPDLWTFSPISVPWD
Description: (§1) An ELISA assay to detect and quantify the CHOP impurity, PLBL2, in recombinant polypeptide samples, such as recombinant antibody or immunoadhesin preparations, was developed. The procedure is as follows. Murine monoclonal antibody 19C10 was coated onto a half area 96-well microtiter plate at a concentration of 0.5 μg/mL in carbonate buffer (0.05M sodium carbonate, pH 9.6), overnight at 2-8° C. After coating, the plate was blocked with Blocking Buffer (0.15M NaCl, 0.1M sodium phosphate, 0.1% fish gelatin, 0.05% polysorbate 20, 0.05% Proclin® 300 [Sigma-Aldrich]; also referred to as Assay Diluent) to prevent non-specific sticking of proteins. […]
(§2) After a 2 hr. incubation step with biotinylated 15G11 at room temperature, Streptavidin HRP (1:200,000 dilution in Assay Diluent) was added to the microtiter plate wells. After a final wash step with Wash Buffer (described above), color was developed (for PLBL2 quantification) by adding a solution of TMB (50 μl/well) (SUREBLUE RESERVE™ from KPL, Kirkegaard & Perry Laboratories, Inc., Gaithersburg, Md., cat no. 53-00-03) followed by incubation at room temperature for 10-20 minutes. […]

[2] = target: T1, purified recombinant soluble hamster …; assay: sandwich ELISA, biotinylated 15G11 as detection antibody on PLBL2 standard captured by coated 19C10, streptavidin-HRP, OD 450 nm; the value describes the whole sandwich
Description: as §1, §2

B1: 19C10 (recombinant murine monoclonal anti-hamster PLBL2 antibody) (antibody, mouse IgG1, kappa, V domains shown)
VH: EVQLQESGPCLVKPSQTLSLTCSVTGDSITSGYWNWIRKFPGNKLESMGYISYSGSTYYNPSLKSRISITRDTSKNQYYLQLNSVTTEDTATYYCARIASWITTYFDYWGQGTTLTVSS
VL: DIVMTQSPAILSVSPGERVSFSCRASQSIGTSIHWYQQRRNGSPRLLIKYASESISGIPSRFSGSGSGTDFILSINSVESEDIADYYCQQSNSWPYTFGGGTKLELKR
notes: Mouse IgG1, kappa, expressed transiently in 293 or CHO cells; also called capture antibody; coat antibody
EC50 (read off the curve) [1]: ~10 ng/mL

B2: 15G11 anti-PLBL2 murine monoclonal antibody conjugated to biotin (antibody, mouse IgG1, kappa, V domains shown)
VH: EVKLEESGGGLVQPGGSTKLSCAASGFTFSDAWMDWVRQCPEKGLEWVAEISSKANNRATYYAESVKGRFTISRDDSKSCVYLQMNSLRAEDTGIYYCTRRGYTMDYWGQGTSVTVSS
VL: DIVMTQSQKFMSTSVGDRVSVTCKASQNVDTNVAWYQQKPGQSPKALIFSASYRFSGVPDRFTGSGSGTDFTLTISNVQSEDLAEYFCQQYNNFPFTFGSGTKLELKR
modifications: biotin conjugated with E-Z Link NHS-Biotin; sites not stated
notes: Mouse IgG1, kappa, biotinylated; Used as the detection antibody of the monoclonal PLBL2 ELISA; also called biotinylated 15G11; detection antibody
EC50 (read off the curve) [2]: ~10 ng/mL
